Experimental data as given in patent US11078245B2, “Colon and pancreas cancer peptidomimetics” (PRECISION BIOLOGICS, INC., priority 2010, dated 2021).
Where “and” joins values, the source holds several entries; their conditions need not be identical. Identical values can stand only once. Like-named read-outs stand apart in the source and are kept apart here.

Key:
Normal colon = assay: Immunohistochemistry: human tissues with biotinylated NEO-101; assay type: binding
Text: Consequently, the positively stained “normal” tissues may have already undergone genotypic changes (“pre-cancerous”) resulting in the expression of the aberrantly glycosylated MUC5AC antigen that could lead to detection of carcinoma with NEO-101.

[1] = normal BALB/c mice
Protocol: Mouse anti-NEO-101 antibody (MAHA) responses were also measured in this study (CB08-5110). The analysis employed an ELISA based assay to detect NEO-101-specific antibodies in mouse serum.

Colo-205 Colorectal = assay: Flow cytometry tumor cell binding; assay type: cell-based, human
Protocol: (§1) See International Patent Application No. PCT/US2011/41502.
(§2) FACs data showing NEO-101 antibody binding to colon cancer and pancreatic cancer cell lines. Cells were washed and suspended in either 2 μg/ml NEO-101-FITC or isotype control antibody-FITC for 1 hour, washed and then subjected to FACS analysis. Experiments with all cell lines were repeated at least three times. […] DAPI was used to stain the nucleus. […] The staining pattern of these pancreatic and colorectal tumor cells was predominantly membrane-associated, consistent with the expression profile of MUC5AC.

SW480 Colorectal = assay: Flow cytometry tumor cell binding; assay type: cell-based, human
Protocol: as §1, §2

CFPAC-1 Pancreatic = assay: Flow cytometry tumor cell binding; assay type: cell-based, human
Protocol: as §1, §2

LS174T Colorectal = assay: Flow cytometry tumor cell binding; assay type: cell-based, human
Protocol: as §1, §2

CFPAC1 cells = assay: NEO-101-coupled Dynal beads rosette assay; assay type: cell-based, human; settings: antibody-coupled Dynal beads with TBS, no M13 clone
Protocol: The M13 clones identified by the biopanning were also immunoassayed using magnetic beads. Aliquots of 5 μl M13 phage (10^11/10 μl) were mixed with 10 μl NEO-101-coupled Dynal® beads at RT for 20 min on a rotator. CFPAC1 cells (30 μl of 10^6 cells/ml) were added and incubated at 4° C. for 30 min. Rosetted cells were counted (>8 beads/cell).

CFPAC-1 cells = assay: Immunofluorescence staining with MUC5AC antibodies; assay type: cell-based, human; settings: 2 μg/ml antibody
Protocol: LS174T and CFPAC-1 cells were grown on cover slips coated in FBS for 48 hours. Cells were then fixed with 4% PFA in PBS, washed with PBS, permeabilized with 0.2% Triton X-100, washed with PBS and blocked with 1% BSA in PBS. Cells were incubated with either 2 μg/ml NEO-101, MS-X, 2-11M1, H160, 351-450, 2-12M1, or 1-13M1. Cells were washed with PBS and then second antibody was added anti-human-FITC, anti-mouse-FITC or anti-rabbit-FITC (1:500), cells were washed and mounted on slides with DAPI hard mount. Cover slides were allowed to sit over night at 4° C. Slides were visualized with a Nikon Eclipse Ti microscope with an Andor camera.

B1: NEO-101: Chimeric NEO-101 antibody, engineered in CHO-DG44 production cell clone 4B7; targets a variant of MUC5AC (protein)
light: QVVLTQSPVIMSASPGEKVTMTCSASSSISYMYWYQQKPGTSPKRWIYDTSKLASGVPARFSGSGSGTSYSLTISNMEAGDAATYYCHQRDSYPWTFGGGTNLEIK
heavy: QVQLKESGPDLVAPSQSLSITCTVSGFSLSKFGVNWVRQPPGKGLEWLGVIWGDGSTSYNSGLISRLSISKENSKSQVFLKLNSLQADDTATYYCVKPGGDYWGHGTSVTVSS
Tissue staining intensity +2 (Normal colon): (25%) | Tissue staining intensity Negative (Normal colon): (75%) | Total Positive (Normal colon): (25%) | Tissue staining intensity +2 (Normal colon; samples/total): 1/4 | Tissue staining intensity Negative (Normal colon; samples/total): 3/4 | Total Positive (Normal colon; samples/total): one of four and 1/4 | immunogenicity (MAHA response) [1]: only mildly immunogenic | % Cells Stained (Colo-205 Colorectal): 94.67% | mfi (Colo-205 Colorectal): 175 | Percent positive (Colo-205 Colorectal; 2 μg/ml FITC antibody, FACS): 94.67% | % Cells Stained (SW480 Colorectal): 58.98% | mfi (SW480 Colorectal): 118 | Percent positive (SW480 Colorectal; 2 μg/ml FITC antibody, FACS): 58.98% | % Cells Stained (CFPAC-1 Pancreatic; CFPAC-1): 52.56% | mfi (CFPAC-1 Pancreatic; CFPAC-1): 59 | Percent positive (CFPAC-1 Pancreatic; CFPAC, 2 μg/ml FITC antibody, FACS): 52.56% | Percent positive (LS174T Colorectal; LS174, 2 μg/ml FITC antibody, FACS): 89.72% | % Cells Stained (LS174T Colorectal; LS174T): 89.72% | mfi (LS174T Colorectal; LS174T): 103 | Positive rosette cells (%) (CFPAC1 cells): 41% | cells stained (CFPAC-1 cells): about 50%
